Assay results: patent US20240376151A1, “STAPLED PEPTIDES AND METHODS THEREOF” (FOG PHARMACEUTICALS, INC., priority 2022, published 2024)
Numbered stars: 1 amine (or outer) side, 2 acyl side, 3 side chain; on linkers, the order of the positions; unused ones are H or OH. Bridge positions count the residues as written; N and C are the ends. Ends that are not written are not given here. Phenylene(1,4-NHCOCH2)2 = O=C(C[*:1])Nc1ccc(NC(=O)C[*:2])cc1

What was measured:
[1] = biological target: T1, PPIA (Homo sapiens, UniProt P62937); test: Phage Library Screening with NGS, PPIA; assay type: binding
T1 construct: Full length PPIA (residues 1-165) with an N-terminal 6×his-yBBR-TEV tag; 6×his-yBBR-TEV (N); made in house; host or cells: E. coli BL21 (DE3) CodonPlus RIPL
T1 sequence (P62937 whole entry, the tested form may be a part): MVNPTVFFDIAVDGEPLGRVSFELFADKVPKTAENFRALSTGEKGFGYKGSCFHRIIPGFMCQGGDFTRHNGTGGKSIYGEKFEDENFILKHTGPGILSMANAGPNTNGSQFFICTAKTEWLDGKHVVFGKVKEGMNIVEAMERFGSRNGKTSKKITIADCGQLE

[2] = biological target: T2, MDM2 (Homo sapiens, UniProt Q00987); test: Naive Library Presenter Screening (phage, NGS), MDM2; assay type: binding; settings: for interaction data, BLANK: Blank = Media only
T2 construct: made in house
T2 sequence (Q00987 25-109): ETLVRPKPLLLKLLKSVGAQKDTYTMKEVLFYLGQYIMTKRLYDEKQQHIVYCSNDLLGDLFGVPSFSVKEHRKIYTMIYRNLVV

[3] = target concentration 1000, first column
[4] = target concentration 1000, second column
[5] = MDM2 clusters (C82, C85), first column
[6] = MDM2 clusters (C82, C85), second column
[7] = MDM2 clusters (C82, C85), target concentration 10 nM
[8] = MDM2 clusters (C82, C85), target concentration 30 nM
[9] = MDM2 clusters (C82, C85), target concentration 100 nM
[10] = MDM2 clusters (C82, C85), target concentration 300 nM
[11] = MDM2 clusters (C82, C85), target concentration 1000 nM, first column
[12] = MDM2 clusters (C82, C85), target concentration 1000 nM, second column

Sequence	phage screen counts, Target Concentration 10 [1]	phage screen counts, Target Concentration 30 [1]	phage screen counts, Target Concentration 100 [1]	phage screen counts, Target Concentration 300 [1]	phage screen counts, Target Concentration 1000 [1, 3]	phage screen counts, Target Concentration 1000 [1, 4]	further results
DPAAFSCHVAAWQCHTL	0	1	156	199	142	190	
DPAAHDCHIAAYWCLNY	0	7	116	208	201	121	
DPALFDCHIAAYQCIFY	0	0	25	29	20	55	
DPAQADCHIAAYLCLFD	0	0	10	19	25	18	
DPAQHDCHVAAYQCIWE	0	52	273	416	616	456	
DPAQLNCHVAAFFCFQS	0	0	21	27	125	8	
DPARAACHVAAYWCYHQ	0	1	3	7	6	7	
DPARADCHVAAYWCHHQ	0	0	4	5	8	7	
DPARADCHVAAYWCYHE	0	1	4	7	9	7	
DPARADCHVAAYWCYHR	0	1	6	6	7	6	
DPARADCHVAAYWCYQQ	0	1	6	8	10	10	
DPARADCQVAAYWCYHQ	0	3	13	16	20	21	
DPARADCRVAAYWCYHQ	0	1	6	6	11	7	
DPARSDCHVAAYWCYHQ	0	0	4	5	6	6	
DPARTDCHVAAYWCYHQ	0	5	13	14	18	25	
DPARYSCHVAAYECILN	0	0	17	14	41	27	

Sequence	phage screen counts, Target Concentration 10 [1]	phage screen counts, Target Concentration 30 [1]	phage screen counts, Target Concentration 100 [1]	phage screen counts, Target Concentration 300 [1]	phage screen counts, Target Concentration 1000 [1, 3]	phage screen counts, Target Concentration 1000 [1, 4]	further results
DPASYDCHVAAYFCNFA	6	10	176	197	190	227	
DPATMNCHVAAYFCIVE	0	0	10	13	10	19	
DPAYASCFSAAWDCQFW (linker 7-14 via Phenylene(1,4-NHCOCH2)2 (inferred))							interaction data at Target Concentration 10 ([2]; MDM2 target concentration 10 nM): 0; interaction data at Target Concentration 30 ([2]; MDM2 target concentration 30 nM): 0; interaction data at Target Concentration 100 ([2]; MDM2 target concentration 100 nM): 19; interaction data at Target Concentration 300 ([2]; MDM2 target concentration 300 nM): 21; interaction data at Target Concentration 1000 ([2]; MDM2 target concentration 1000 nM, first column): 13; interaction data at Target Concentration 1000 ([2]; MDM2 target concentration 1000 nM, second column): 38
DPAYEDCFFAAWNCMMV (linker 7-14 via Phenylene(1,4-NHCOCH2)2 (inferred))							interaction data, BLANK [2, 5]: 0; interaction data, BLANK [2, 6]: 0; interaction data at Target Concentration 10 [2, 7]: 0; interaction data at Target Concentration 30 [2, 8]: 5; interaction data at Target Concentration 100 [2, 9]: 18; interaction data at Target Concentration 300 [2, 10]: 17; interaction data at Target Concentration 1000 [2, 11]: 23; interaction data at Target Concentration 1000 [2, 12]: 39
DPAYSDCFQAAWTCMIH (linker 7-14 via Phenylene(1,4-NHCOCH2)2 (inferred))							interaction data, BLANK [2, 5]: 0; interaction data, BLANK [2, 6]: 0; interaction data at Target Concentration 10 [2, 7]: 0; interaction data at Target Concentration 30 [2, 8]: 78; interaction data at Target Concentration 100 [2, 9]: 135; interaction data at Target Concentration 300 [2, 10]: 155; interaction data at Target Concentration 1000 [2, 11]: 110; interaction data at Target Concentration 1000 [2, 12]: 150
DPAYTQCSDAAFMCWWW (linker 7-14 via Phenylene(1,4-NHCOCH2)2 (inferred))							interaction data, BLANK [2, 5]: 0; interaction data, BLANK [2, 6]: 0; interaction data at Target Concentration 10 [2, 7]: 0; interaction data at Target Concentration 30 [2, 8]: 19; interaction data at Target Concentration 100 [2, 9]: 32; interaction data at Target Concentration 300 [2, 10]: 48; interaction data at Target Concentration 1000 [2, 11]: 65; interaction data at Target Concentration 1000 [2, 12]: 62
DPAYYDCHIAAYFCRTQ	16	62	77	106	93	131	
PDCHIAAWYCR	0	0	0	0	11	10	
PDCHIASWFCS	0	0	0	3	25	5	
PDCHIQAYICH	0	0	0	4	6	35	
PDCHIRAYMCN	0	0	0	0	20	26	
PDCHIRAYVCH (Ac-PDCHIRAYVCH-NH2; bridge 3-10; also: Cys-Cys staple, linker not named)	0	0	1	8	11	120	
PDCHIYAFYCL	0	0	1	5	8	18	
PDCHLNAYWCM	0	0	1	47	47	115	
PDCHVAAWMCF	0	0	0	8	16	26	
